Here are results for 13 substances from US20250186594A1.

For assay [1], the target named is His-tagged human IL-18BP (human) (UniProt O95998). Kind of assay: AlphaLISA of free IL-18BP.
In assay [2] the target is Fc fused human IL-18BP isoform a (IL-18BPa) (human) (UniProt O95998). Briefly: SPR, Fc-IL-18BPa captured, 1:1 fit.
For assay [3], the target named is His-tagged human IL-18BP (human) (UniProt O95998). Briefly: AlphaLISA of free IL-18BP (signal at 615 nm) after incubation of His-tagged human IL-18BP with a dilution series of the IL-18 polypeptide.

Fc fused human IL-18BP isoform a (IL-18BPa) (human), sequence (O95998 31-194): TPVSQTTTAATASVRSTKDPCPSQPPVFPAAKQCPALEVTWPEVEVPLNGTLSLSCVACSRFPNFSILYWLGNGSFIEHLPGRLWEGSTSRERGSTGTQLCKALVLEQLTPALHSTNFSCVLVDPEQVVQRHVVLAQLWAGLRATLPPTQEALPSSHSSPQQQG
Native IL-18 wild-type (SEQ ID NO: 1, native sequence), sequence (Q14116 37-193): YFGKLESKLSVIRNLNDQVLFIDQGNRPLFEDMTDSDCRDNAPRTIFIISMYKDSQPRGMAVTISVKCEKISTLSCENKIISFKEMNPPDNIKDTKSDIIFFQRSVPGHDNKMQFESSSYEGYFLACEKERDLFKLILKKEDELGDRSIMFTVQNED

In the case of “IL-18 variant SEQ ID NO: 30 (E6K, V11I, C38A, K53A, T63A, C76A, C127A) (from UniProt Q14116 37-193) (ligand)”, the Kd (in general, a measure of binding affinity in units of concentration) in assay [1] is 0.0246 µM. In addition, in assay [2], the Kd stood at 0.00305 µM; the koff (usually the first-order rate constant of dissociation) is 0.00345 s⁻¹; the on-rate constant (kon) (as a rule, a measure of how fast the partners come together) worked out at 1.05e+06 M⁻¹ s⁻¹. Moreover, in assay [3], the IC50 (read off the curve) was found to be 0.008 µM.
Turning to “IL-18 variant SEQ ID NO: 30 with 20 kDa PEG (E6K, V11I, C38A, K53A, T63A, C76A, C127A, C68-20kPEG) (from UniProt Q14116 37-193) (ligand)”, the Kd in assay [1] was determined as 0.0197 µM. In assay [2], this substance registered a dissociation constant (Kd) of 0.012 µM, a koff of 0.00397 s⁻¹ and a kon of 330000 M⁻¹ s⁻¹.
In assay [1], “IL-18 variant SEQ ID NO: 30 with 30 kDa PEG (E6K, V11I, C38A, K53A, T63A, C76A, C127A, C68-30kPEG) (from UniProt Q14116 37-193) (ligand)” gave a Kd of 0.0263 µM. In assay [2], this substance gave a Kd of 0.0451 µM, a koff of 0.00451 s⁻¹ and a kon of 106000 M⁻¹ s⁻¹.
For the substance “IL-18 variant SEQ ID NO: 57 (E6K, C38S, K53A) (from UniProt Q14116 37-193) (ligand)”, in assay [1], the Kd stood at 0.0484 µM. In assay [2], this substance displayed a Kd of 0.0018 µM, an off-rate (koff) of 0.00311 s⁻¹ and a kon of 1.63e+06 M⁻¹ s⁻¹.
As for “IL-18 variant SEQ ID NO: 57 with 30 kDa PEG (E6K, C38S, K53A, C68-30kDPEG) (from UniProt Q14116 37-193) (ligand)”, in assay [1], the Kd was 0.0425 µM. Further, in assay [2], the Kd is 0.023 µM, the koff was 0.00397 s⁻¹ and the kon was 177000 M⁻¹ s⁻¹.
“IL-18 variant SEQ ID NO: 59 (E6K, C38A, K53A) (from UniProt Q14116 37-193) (ligand)” had a Kd in assay [1] of 0.0364 µM. Further, in assay [2], the Kd was determined as 0.00205 µM, the koff was determined as 0.00301 s⁻¹ and the kon turned out to be 1.47e+06 M⁻¹ s⁻¹.
The matching figures for “IL-18 variant SEQ ID NO: 59 with 30 kDa PEG (E6K, C38A, K53A, C68-30kDPEG) (from UniProt Q14116 37-193) (ligand)”: 0.0752 µM, 0.0194 µM, 0.00355 s⁻¹ and 199000 M⁻¹ s⁻¹.
Substance “IL-18 variant SEQ ID NO: 60 (E6K, C38Q, K53A) (from UniProt Q14116 37-193) (ligand)” yielded a Kd in assay [1] of 0.0248 µM. In assay [2], this substance displayed a Kd of 0.0017 µM, a koff of 0.00308 s⁻¹ and a kon of 1.87e+06 M⁻¹ s⁻¹.
The matching figures for “IL-18 variant SEQ ID NO: 60 with 30 kDa PEG (E6K, C38Q, K53A, C68-30kPEG) (from UniProt Q14116 37-193) (ligand)”: 0.0637 µM, 0.022 µM, 0.00395 s⁻¹ and 193000 M⁻¹ s⁻¹.
“IL-18 variant SEQ ID NO: 62 (E6K, C38A, K53A, C127A) (from UniProt Q14116 37-193) (ligand)”: the Kd in assay [1] turned out to be 0.0696 µM. Further, in assay [2], the Kd came to 0.00196 µM, the koff turned out to be 0.00315 s⁻¹ and the kon was determined as 1.61e+06 M⁻¹ s⁻¹.
As for “IL-18 variant SEQ ID NO: 62 with 30 kDa PEG (E6K, C38A, K53A, C127A, C68-30kPEG) (from UniProt Q14116 37-193) (ligand)”, the Kd in assay [1] was 0.0293 µM. In assay [2], the Kd amounted to 0.024 µM, the dissociation rate constant (koff) amounted to 0.00342 s⁻¹ and the kon was determined as 142000 M⁻¹ s⁻¹.
The corresponding values for “IL-18 variant SEQ ID NO: 63 (E6K, C38A, K53A, C76A, C127A) (from UniProt Q14116 37-193) (ligand)” are 0.0203 µM, 0.0015 µM, 0.00424 s⁻¹ and 2.82e+06 M⁻¹ s⁻¹.
In the case of “Native IL-18 wild-type (SEQ ID NO: 1, native sequence) (from UniProt Q14116 37-193) (ligand)”, in assay [1], the Kd is 0.000411 µM. In assay [2], the Kd was 0.000246 µM, the koff came out at 0.00038 s⁻¹ and the kon worked out at 1.28e+06 M⁻¹ s⁻¹. The IC50 (read off the curve) in assay [3] was determined as 0.0006 µM.
